Biological target: GLP-1 receptor
Assay: cell-based or functional assay

## GLP-1(7-37) parent (from UniProt P01275 98-128) (peptide)
  EC50, Receptor Functional assay (intracellular cAMP in CHO/GLP-1R cells): 0.0503 nM

Source: patent US20110269680A1, “GLP-1 ANALOGS AND USES THEREOF” (PANACEA BIOTEC LIMITED, priority 2008, published 2011)
